Laboratory results: the supplement of paper PMC9112550, “Optimization of the antimicrobial peptide Bac7 by deep mutational scanning” (BMC Biology, 2022)

Test system: Escherichia coli TOP10
Test: shrunken log2 fold change of peptide-encoding DNA abundance (4.5 h post-induction vs induction); higher = less antimicrobial activity (less host growth inhibition)
Conditions: time post-induction: 4.5 h; library: site-saturation at positions 5, 18, 19, 20
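Also: peptides expressed intracellularly from a pBAD plasmid library in pooled LB shake-flask culture, induced with 0.3% L-arabinose, DNA abundance read by NGS, three biological replicates, DESeq2 with apeglm shrinkage.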

Row | Sequence | shrunken log2 fold change
1 | RRIRHRPPRLPRPRPRPAPPPRP | 0.854
2 | RRIRIRPPRLPRPRPRPQICPRP | -0.0396
3 | RRIRMRPPRLPRPRPRPFPGPRP | -0.0808
4 | RRIRCRPPRLPRPRPRPIKRPRP | -0.628
5 | RRIRWRPPRLPRPRPRPQIVPRP | 0.0235
6 | RRIRPRPPRLPRPRPRPWSIPRP | -0.0637
7 | RRIRPRPPRLPRPRPRPRAVPRP | 1.68
8 | RRIRDRPPRLPRPRPRPIATPRP | -0.0393
9 | RRIRPRPPRLPRPRPRPLGLPRP | -0.124
10 | RRIRHRPPRLPRPRPRPTRSPRP | -0.0409
11 | RRIRPRPPRLPRPRPRPKAKPRP | 0.131
12 | RRIRSRPPRLPRPRPRPNYEPRP | -0.609
13 | RRIRNRPPRLPRPRPRPPPWPRP | 0.591
14 | RRIRYRPPRLPRPRPRPYAGPRP | -0.00131
15 | RRIRFRPPRLPRPRPRPGEIPRP | -0.183
16 | RRIRFRPPRLPRPRPRPYEVPRP | -0.12
17 | RRIRCRPPRLPRPRPRPLCLPRP | -0.525
18 | RRIRHRPPRLPRPRPRPLAQPRP | 0.00325
19 | RRIRTRPPRLPRPRPRPMIIPRP | -0.0854
20 | RRIRNRPPRLPRPRPRPMRMPRP | -0.00372
21 | RRIRTRPPRLPRPRPRPLGCPRP | 0.0809
22 | RRIRYRPPRLPRPRPRPNQVPRP | -0.0141
23 | RRIRRRPPRLPRPRPRPCEFPRP | -0.109
24 | RRIRARPPRLPRPRPRPSGWPRP | 0.861
25 | RRIRLRPPRLPRPRPRPMMPPRP | -0.174

Row | Sequence | shrunken log2 fold change
26 | RRIRWRPPRLPRPRPRPYVGPRP | -0.157
27 | RRIRTRPPRLPRPRPRPAGSPRP | -0.000597
28 | RRIRLRPPRLPRPRPRPEEVPRP | -0.00242
29 | RRIRMRPPRLPRPRPRPKVGPRP | 1.27
30 | RRIRFRPPRLPRPRPRPLIWPRP | -0.13
31 | RRIRQRPPRLPRPRPRPNMTPRP | -0.196
32 | RRIRVRPPRLPRPRPRPVWRPRP | 0.309
33 | RRIRCRPPRLPRPRPRPQQFPRP | -0.217
34 | RRIRTRPPRLPRPRPRPINAPRP | -0.175
35 | RRIRMRPPRLPRPRPRPYVFPRP | -0.368
36 | RRIRTRPPRLPRPRPRPSTKPRP | -0.145
37 | RRIRLRPPRLPRPRPRPQCWPRP | -0.0159
38 | RRIRDRPPRLPRPRPRPSCKPRP | -0.1
39 | RRIRHRPPRLPRPRPRPNAHPRP | -0.0872
40 | RRIRCRPPRLPRPRPRPQTVPRP | -0.275
41 | RRIRMRPPRLPRPRPRPPLSPRP | 0.185
42 | RRIRVRPPRLPRPRPRPEAPPRP | 0.000205
43 | RRIRMRPPRLPRPRPRPCCDPRP | 0.393
44 | RRIRVRPPRLPRPRPRPFIYPRP | -0.236
45 | RRIRNRPPRLPRPRPRPNDAPRP | -0.221
46 | RRIRIRPPRLPRPRPRPGQNPRP | -0.0607
47 | RRIRQRPPRLPRPRPRPNPSPRP | -0.042
48 | RRIRPRPPRLPRPRPRPCQDPRP | -0.006
49 | RRIRDRPPRLPRPRPRPMTQPRP | 0.0403
50 | RRIRGRPPRLPRPRPRPITWPRP | -0.0883

Row | Sequence | shrunken log2 fold change
51 | RRIRMRPPRLPRPRPRPEEEPRP | 0.0412
52 | RRIRRRPPRLPRPRPRPHEAPRP | 0.0262
53 | RRIRQRPPRLPRPRPRPHWQPRP | -0.147
54 | RRIRWRPPRLPRPRPRPQYHPRP | -0.505
55 | RRIRPRPPRLPRPRPRPNCYPRP | -0.344
56 | RRIRKRPPRLPRPRPRPRKKPRP | 0.381
57 | RRIRHRPPRLPRPRPRPQPSPRP | 0.111
58 | RRIRYRPPRLPRPRPRPDNIPRP | 0.0653
59 | RRIRQRPPRLPRPRPRPMRFPRP | 0.0202
60 | RRIRMRPPRLPRPRPRPGVRPRP | 1.42
61 | RRIRCRPPRLPRPRPRPRVHPRP | -0.152
62 | RRIRERPPRLPRPRPRPVRMPRP | 0.11
63 | RRIRGRPPRLPRPRPRPCQPPRP | -0.0639
64 | RRIRTRPPRLPRPRPRPVQLPRP | -0.16
65 | RRIRVRPPRLPRPRPRPSADPRP | -0.397
66 | RRIRWRPPRLPRPRPRPRYFPRP | -0.127
67 | RRIRPRPPRLPRPRPRPALRPRP | 0.545
68 | RRIRGRPPRLPRPRPRPPSTPRP | 0.643
69 | RRIRNRPPRLPRPRPRPNWIPRP | -0.0612
70 | RRIRCRPPRLPRPRPRPYPMPRP | -0.424
71 | RRIRKRPPRLPRPRPRPRNLPRP | 0.525
72 | RRIRTRPPRLPRPRPRPHMTPRP | -0.265
73 | RRIRYRPPRLPRPRPRPPHFPRP | -0.139
74 | RRIRERPPRLPRPRPRPENYPRP | 2
75 | RRIRNRPPRLPRPRPRPFMIPRP | -0.294

Row | Sequence | shrunken log2 fold change
76 | RRIRCRPPRLPRPRPRPEPDPRP | 0.307
77 | RRIRYRPPRLPRPRPRPQMHPRP | -0.748
78 | RRIRTRPPRLPRPRPRPILRPRP | -0.0606
79 | RRIRWRPPRLPRPRPRPRNSPRP | 0.0821
80 | RRIRTRPPRLPRPRPRPYCYPRP | -0.104
81 | RRIRWRPPRLPRPRPRPKRNPRP | 0.432
82 | RRIRMRPPRLPRPRPRPMNIPRP | -0.198
83 | RRIRSRPPRLPRPRPRPRSNPRP | -0.186
84 | RRIRNRPPRLPRPRPRPHGVPRP | 0.0154
85 | RRIRERPPRLPRPRPRPQTKPRP | 0.0765
86 | RRIRTRPPRLPRPRPRPMDSPRP | -0.0716
87 | RRIRLRPPRLPRPRPRPPLRPRP | 0.386
88 | RRIRSRPPRLPRPRPRPYNYPRP | -0.494
89 | RRIRSRPPRLPRPRPRPSDHPRP | -0.555
90 | RRIRCRPPRLPRPRPRPADNPRP | -0.219
91 | RRIRSRPPRLPRPRPRPLDEPRP | 0.189
92 | RRIRLRPPRLPRPRPRPHTWPRP | -0.202
93 | RRIRVRPPRLPRPRPRPRYLPRP | -0.184
94 | RRIRTRPPRLPRPRPRPRRMPRP | 0.15
95 | RRIRCRPPRLPRPRPRPDIMPRP | -0.0409
96 | RRIRTRPPRLPRPRPRPCQHPRP | 0.0626
97 | RRIRLRPPRLPRPRPRPPFIPRP | -0.635
98 | RRIRSRPPRLPRPRPRPHSTPRP | -0.312
99 | RRIRFRPPRLPRPRPRPYFDPRP | -0.489
100 | RRIRFRPPRLPRPRPRPVKDPRP | -0.254

Row | Sequence | shrunken log2 fold change
101 | RRIRRRPPRLPRPRPRPKKSPRP | 0.237
102 | RRIRPRPPRLPRPRPRPMSQPRP | 0.0517
103 | RRIRYRPPRLPRPRPRPFKYPRP | -0.689
104 | RRIRWRPPRLPRPRPRPVWYPRP | -0.18
105 | RRIRTRPPRLPRPRPRPSMCPRP | -0.377
106 | RRIRRRPPRLPRPRPRPQASPRP | 0.0463
107 | RRIRSRPPRLPRPRPRPKEMPRP | 0.187
108 | RRIRGRPPRLPRPRPRPFSYPRP | 0.0924
109 | RRIRDRPPRLPRPRPRPGKTPRP | -0.00088
110 | RRIRERPPRLPRPRPRPQIGPRP | -0.0217
111 | RRIRKRPPRLPRPRPRPPCGPRP | 0.614
112 | RRIRMRPPRLPRPRPRPRDMPRP | 0.316
113 | RRIRQRPPRLPRPRPRPQFLPRP | -0.359
114 | RRIRNRPPRLPRPRPRPFILPRP | -0.634
115 | RRIRRRPPRLPRPRPRPHYAPRP | 0.148
116 | RRIRLRPPRLPRPRPRPYQVPRP | -0.0302
117 | RRIRIRPPRLPRPRPRPFAHPRP | -0.241
118 | RRIRVRPPRLPRPRPRPEWTPRP | 0.171
119 | RRIRHRPPRLPRPRPRPRAYPRP | -0.411
120 | RRIRSRPPRLPRPRPRPWMQPRP | -0.0251
121 | RRIRCRPPRLPRPRPRPFWCPRP | -0.397
122 | RRIRARPPRLPRPRPRPVKKPRP | 0.147
123 | RRIRVRPPRLPRPRPRPCRDPRP | -0.4
124 | RRIRERPPRLPRPRPRPVYKPRP | -0.348
125 | RRIRWRPPRLPRPRPRPVCVPRP | 0.193
